Assay results reported in publication PMC2191694.

Tests used:
[1] = molecular target: T1, Oct-2 (UniProt P09086 1-479); test: competition
[2] = molecular target: T1, Oct-2; test: EMSA
[3] = molecular target: T1, Oct-2; test: competition; remark: listed apart in the source

T1 sequence (P09086 whole entry): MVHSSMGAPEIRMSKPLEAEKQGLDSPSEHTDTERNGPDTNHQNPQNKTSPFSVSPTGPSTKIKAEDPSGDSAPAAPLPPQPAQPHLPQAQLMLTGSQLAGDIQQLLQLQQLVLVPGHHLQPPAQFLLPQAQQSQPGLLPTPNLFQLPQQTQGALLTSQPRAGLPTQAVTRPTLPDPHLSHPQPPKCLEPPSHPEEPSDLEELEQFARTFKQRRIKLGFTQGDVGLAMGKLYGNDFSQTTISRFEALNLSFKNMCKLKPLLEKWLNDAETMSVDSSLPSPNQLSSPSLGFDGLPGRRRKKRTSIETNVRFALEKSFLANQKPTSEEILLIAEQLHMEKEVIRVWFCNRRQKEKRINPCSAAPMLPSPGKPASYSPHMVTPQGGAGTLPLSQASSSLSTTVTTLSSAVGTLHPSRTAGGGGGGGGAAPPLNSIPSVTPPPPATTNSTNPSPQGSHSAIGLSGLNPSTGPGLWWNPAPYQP

B1: IL2-OAP/mOCT (dsDNA)
DNA 1: TTGAAAATATGTGTAATATAATACTCATTT
DNA 2: AAATGAGTATTATATTACACATATTTTCAA
[1]
  binding result: no binding

B2: IL2-deltaOAP/OCT (dsDNA)
DNA 1: ATATGTAAAACATTT
DNA 2: AAATGTTTTACATAT
[2]
  binding result: binds

B3: IL2-mOAP/OCT (dsDNA)
DNA 1: TTGAAAATATTTTTAATATGTAAAACATTT
DNA 2: AAATGTTTTACATATTAAAAATATTTTCAA
[3]
  binding result: binds
